# Source: PMC4741643
# Target: suppressor of MEK null (sMEK1), full-length human, pGilda fusion (human) (UniProt Q6IN85)
# Test: two-hybrid; EGY48 yeast cells; pGilda-sMEK1 as bait, pJG4-5 fusions as prey; growth on medium lacking leucine, blue colonies on X-gal plates with 2% galactose, β-galactosidase activity with ONPG
# Sequence of UniProt Q6IN85 (Q6IN85 whole entry, the tested form may be a part): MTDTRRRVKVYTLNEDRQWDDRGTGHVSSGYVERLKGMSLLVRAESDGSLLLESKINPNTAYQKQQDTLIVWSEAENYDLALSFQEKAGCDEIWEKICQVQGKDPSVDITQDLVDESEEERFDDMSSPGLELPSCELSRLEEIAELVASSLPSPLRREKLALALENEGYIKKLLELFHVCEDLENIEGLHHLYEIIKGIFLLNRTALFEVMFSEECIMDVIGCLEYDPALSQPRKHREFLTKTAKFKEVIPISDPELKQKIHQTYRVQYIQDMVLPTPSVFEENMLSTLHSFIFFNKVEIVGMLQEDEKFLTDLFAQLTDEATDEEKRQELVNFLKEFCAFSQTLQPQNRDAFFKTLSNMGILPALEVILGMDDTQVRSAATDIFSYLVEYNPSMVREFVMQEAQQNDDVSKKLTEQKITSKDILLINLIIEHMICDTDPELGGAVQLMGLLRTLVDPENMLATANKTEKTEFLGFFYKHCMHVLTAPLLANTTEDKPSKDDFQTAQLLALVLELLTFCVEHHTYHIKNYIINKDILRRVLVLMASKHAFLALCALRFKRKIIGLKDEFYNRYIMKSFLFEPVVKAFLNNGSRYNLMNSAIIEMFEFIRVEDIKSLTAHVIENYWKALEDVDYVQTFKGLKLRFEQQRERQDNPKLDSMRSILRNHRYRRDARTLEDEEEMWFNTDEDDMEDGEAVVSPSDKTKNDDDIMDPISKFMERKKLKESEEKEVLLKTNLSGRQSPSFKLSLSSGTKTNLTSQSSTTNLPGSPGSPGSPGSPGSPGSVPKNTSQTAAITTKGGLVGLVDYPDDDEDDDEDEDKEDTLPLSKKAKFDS
substance,measurement,value
"vascular endothelial growth factor receptor 2 (VEGFR-2), full-length human, yeast two-hybrid construct (from UniProt P35968 1-1356)",β-galactosidase activity,92.3 unit
